According to US20110217338A1:

Assays:
[1] = target: IgG b12, broadly neutralizing anti-HIV-1 gp120 antibody; experiment: SPR, Biacore 2000, 25 C, IgG b12 immobilized on CM5 chip (900 RU)
[2] = target: b122a displayed on the surface of yeast EBY100; experiment: flow cytometry of yeast EBY100 displaying b122a, b12 detected with anti-human-PE

Core gp120 showed a Kd [1] of 22 nM.

Substance “IgG b12, broadly neutralizing anti-HIV-1 gp120 antibody” has a concentration of b12 which showed appreciable binding [2] of 9 µM.

For Wt gp120 (full-length HIV-1 gp120), the Kd [1] was 17 nM.
